Patent US20060263345A1, “Butyrylcholinesterase variant polypeptides with increased catalytic efficiency and methods of use” (priority 2003, published 2006)

Test: microtiter isotope tracer [3H]-cocaine hydrolysis assay of immobilized butyrylcholinesterase variants
Assay type: biochemical
Details: for cocaine hydrolysis activity compared to butyrylcholinesterase (in words): compared to human butyrylcholinesterase; for increase in cocaine hydrolysis activity relative to butyrylcholinesterase: compared to human butyrylcholinesterase SEQ ID NO: 44, approximate values; for Relative Activity of butyrylcholinesterase variants (WT = 1) with enhanced cocaine hydrolase activity: relative to wild-type = 1, catalytic efficiency (Vmax/Km), [3H]-cocaine microtiter assay
Text: At the conclusion of the isotope tracer assay, an aliquot of the reaction mix is acidified in order to take advantage of the solubility difference between the product and the substrate at pH 3.0. […] Prospect, Ill.) while [3H]-cocaine is not.
The supernatants isolated from each of the butyrylcholinesterase variant library clones contains variable butyrylcholinesterase enzyme concentrations.
At least three approaches are used to either increase the assay sensitivity or the assay signal.
Km values for (−)-cocaine are determined at 37° C. Vmax and Km values are calculated using Sigma Plot (Jandel Scientific, San Rafael, Calif.). The number of active sites of butyrylcholinesterase is determined by the method of residual activity using echothiopate iodide or diisopropyl fluorophosphates as titrants, as described previously by Masson et al., Biochemistry 36: 2266-2277 (1997). […] Purified human butyrylcholinesterase is used as the standard for the ELISA quantitation assay. The catalytic rate constant, kcat, is calculated by dividing Vmax by the concentration of active sites.

B1: A328W/V331L (protein)
chain: EDDIIIATKNGKVRGMNLTVFGGTVTAFLGIPYAQPPLGRLRFKKPQSLTKWSDIWNATKYANSCCQNIDQSFPGFHGSEMWNPNTDLSEDCLYLNVWIPAPKPKNATVLIWIYGGGFQTGTSSLHVYDGKFLARVERVIVVSMNYRVGALGFLALPGNPEAPGNMGLFDQQLALQWVQKNIAAFGGNPKSVTLFGESAGAASVSLHLLSPGSHSLFTRAILQSGSFNAPWAVTSLYEARNRTLNLAKLTGCSRENETEIIKCLRNKDPQEILLNEAFVVPYGTPLSVNFGPTVDGDFLTDMPDILLELGQFKKTQILVGVNKDEGTWFLLYGAPGFSKDNNSIITRKEFQEGLKIFFPGVSEFGKESILFHYTDWVDDQRPENYREALGDVVGDYNFICPALEFTKKFSEWGNNAFFYYFEHRSSKLPWPEWMGVMHGYEIEFVFGLPLERRDNYTKAEEILSRSIVKRWANFAKYGNPNETQNNSTSWPVFKSTEQKYLTLNTESTRIMTKLRAQQCRFWTSFFPKVLEMTGNIDEAEWEWKAGFHRWNNYMMDWKNQFNDYTSKKESCVGL
modifications: Butyrylcholinesterase variant
- cocaine hydrolysis activity compared to butyrylcholinesterase (in words): enhanced cocaine hydrolase activity
- increase in cocaine hydrolysis activity relative to butyrylcholinesterase: sixteen
- Relative Activity of butyrylcholinesterase variants (WT = 1) with enhanced cocaine hydrolase activity: 16

B2: A328W/F227A (protein)
chain: EDDIIIATKNGKVRGMNLTVFGGTVTAFLGIPYAQPPLGRLRFKKPQSLTKWSDIWNATKYANSCCQNIDQSFPGFHGSEMWNPNTDLSEDCLYLNVWIPAPKPKNATVLIWIYGGGFQTGTSSLHVYDGKFLARVERVIVVSMNYRVGALGFLALPGNPEAPGNMGLFDQQLALQWVQKNIAAFGGNPKSVTLFGESAGAASVSLHLLSPGSHSLFTRAILQSGSANAPWAVTSLYEARNRTLNLAKLTGCSRENETEIIKCLRNKDPQEILLNEAFVVPYGTPLSVNFGPTVDGDFLTDMPDILLELGQFKKTQILVGVNKDEGTWFLVYGAPGFSKDNNSIITRKEFQEGLKIFFPGVSEFGKESILFHYTDWVDDQRPENYREALGDVVGDYNFICPALEFTKKFSEWGNNAFFYYFEHRSSKLPWPEWMGVMHGYEIEFVFGLPLERRDNYTKAEEILSRSIVKRWANFAKYGNPNETQNNSTSWPVFKSTEQKYLTLNTESTRIMTKLRAQQCRFWTSFFPKVLEMTGNIDEAEWEWKAGFHRWNNYMMDWKNQFNDYTSKKESCVGL
modifications: Butyrylcholinesterase variant
- cocaine hydrolysis activity compared to butyrylcholinesterase (in words): enhanced cocaine hydrolase activity
- increase in cocaine hydrolysis activity relative to butyrylcholinesterase: sixty-eight
- Relative Activity of butyrylcholinesterase variants (WT = 1) with enhanced cocaine hydrolase activity: 68

B3: A328W/Y332M/S287G/F227A/A199S (protein)
chain: EDDIIIATKNGKVRGMNLTVFGGTVTAFLGIPYAQPPLGRLRFKKPQSLTKWSDIWNATKYANSCCQNIDQSFPGFHGSEMWNPNTDLSEDCLYLNVWIPAPKPKNATVLIWIYGGGFQTGTSSLHVYDGKFLARVERVIVVSMNYRVGALGFLALPGNPEAPGNMGLFDQQLALQWVQKNIAAFGGNPKSVTLFGESSGAASVSLHLLSPGSHSLFTRAILQSGSANAPWAVTSLYEARNRTLNLAKLTGCSRENETEIIKCLRNKDPQEILLNEAFVVPYGTPLGVNFGPTVDGDFLTDMPDILLELGQFKKTQILVGVNKDEGTWFLVMGAPGFSKDNNSIITRKEFQEGLKIFFPGVSEFGKESILFHYTDWVDDQRPENYREALGDVVGDYNFICPALEFTKKFSEWGNNAFFYYFEHRSSKLPWPEWMGVMHGYEIEFVFGLPLERRDNYTKAEEILSRSIVKRWANFAKYGNPNETQNNSTSWPVFKSTEQKYLTLNTESTRIMTKLRAQQCRFWTSFFPKVLEMTGNIDEAEWEWKAGFHRWNNYMMDWKNQFNDYTSKKESCVGL
modifications: Butyrylcholinesterase variant
- cocaine hydrolysis activity compared to butyrylcholinesterase (in words): enhanced cocaine hydrolase activity
- increase in cocaine hydrolysis activity relative to butyrylcholinesterase: one-hundred
- Relative Activity of butyrylcholinesterase variants (WT = 1) with enhanced cocaine hydrolase activity: 100

B4: A328W/S287G/F227A (protein)
chain: EDDIIIATKNGKVRGMNLTVFGGTVTAFLGIPYAQPPLGRLRFKKPQSLTKWSDIWNATKYANSCCQNIDQSFPGFHGSEMWNPNTDLSEDCLYLNVWIPAPKPKNATVLIWIYGGGFQTGTSSLHVYDGKFLARVERVIVVSMNYRVGALGFLALPGNPEAPGNMGLFDQQLALQWVQKNIAAFGGNPKSVTLFGESAGAASVSLHLLSPGSHSLFTRAILQSGSANAPWAVTSLYEARNRTLNLAKLTGCSRENETEIIKCLRNKDPQEILLNEAFVVPYGTPLGVNFGPTVDGDFLTDMPDILLELGQFKKTQILVGVNKDEGTWFLVYGAPGFSKDNNSIITRKEFQEGLKIFFPGVSEFGKESILFHYTDWVDDQRPENYREALGDVVGDYNFICPALEFTKKFSEWGNNAFFYYFEHRSSKLPWPEWMGVMHGYEIEFVFGLPLERRDNYTKAEEILSRSIVKRWANFAKYGNPNETQNNSTSWPVFKSTEQKYLTLNTESTRIMTKLRAQQCRFWTSFFPKVLEMTGNIDEAEWEWKAGFHRWNNYMMDWKNQFNDYTSKKESCVGL
modifications: Butyrylcholinesterase variant
- cocaine hydrolysis activity compared to butyrylcholinesterase (in words): enhanced cocaine hydrolase activity
- increase in cocaine hydrolysis activity relative to butyrylcholinesterase: ninety-one
- Relative Activity of butyrylcholinesterase variants (WT = 1) with enhanced cocaine hydrolase activity: 91

B5: A328W/S287G/A199S (protein)
chain: EDDIIIATKNGKVRGMNLTVFGGTVTAFLGIPYAQPPLGRLRFKKPQSLTKWSDIWNATKYANSCCQNIDQSFPGFHGSEMWNPNTDLSEDCLYLNVWIPAPKPKNATVLIWIYGGGFQTGTSSLHVYDGKFLARVERVIVVSMNYRVGALGFLALPGNPEAPGNMGLFDQQLALQWVQKNIAAFGGNPKSVTLFGESSGAASVSLHLLSPGSHSLFTRAILQSGSFNAPWAVTSLYEARNRTLNLAKLTGCSRENETEIIKCLRNKDPQEILLNEAFVVPYGTPLGVNFGPTVDGDFLTDMPDILLELGQFKKTQILVGVNKDEGTWFLVYGAPGFSKDNNSIITRKEFQEGLKIFFPGVSEFGKESILFHYTDWVDDQRPENYREALGDVVGDYNFICPALEFTKKFSEWGNNAFFYYFEHRSSKLPWPEWMGVMHGYEIEFVFGLPLERRDNYTKAEEILSRSIVKRWANFAKYGNPNETQNNSTSWPVFKSTEQKYLTLNTESTRIMTKLRAQQCRFWTSFFPKVLEMTGNIDEAEWEWKAGFHRWNNYMMDWKNQFNDYTSKKESCVGL
modifications: Butyrylcholinesterase variant
- cocaine hydrolysis activity compared to butyrylcholinesterase (in words): enhanced cocaine hydrolase activity
- increase in cocaine hydrolysis activity relative to butyrylcholinesterase: ninety-seven
- Relative Activity of butyrylcholinesterase variants (WT = 1) with enhanced cocaine hydrolase activity: 97

B6: A328W/Y332S (protein)
chain: EDDIIIATKNGKVRGMNLTVFGGTVTAFLGIPYAQPPLGRLRFKKPQSLTKWSDIWNATKYANSCCQNIDQSFPGFHGSEMWNPNTDLSEDCLYLNVWIPAPKPKNATVLIWIYGGGFQTGTSSLHVYDGKFLARVERVIVVSMNYRVGALGFLALPGNPEAPGNMGLFDQQLALQWVQKNIAAFGGNPKSVTLFGESAGAASVSLHLLSPGSHSLFTRAILQSGSFNAPWAVTSLYEARNRTLNLAKLTGCSRENETEIIKCLRNKDPQEILLNEAFVVPYGTPLSVNFGPTVDGDFLTDMPDILLELGQFKKTQILVGVNKDEGTWFLVSGAPGFSKDNNSIITRKEFQEGLKIFFPGVSEFGKESILFHYTDWVDDQRPENYREALGDVVGDYNFICPALEFTKKFSEWGNNAFFYYFEHRSSKLPWPEWMGVMHGYEIEFVFGLPLERRDNYTKAEEILSRSIVKRWANFAKYGNPNETQNNSTSWPVFKSTEQKYLTLNTESTRIMTKLRAQQCRFWTSFFPKVLEMTGNIDEAEWEWKAGFHRWNNYMMDWKNQFNDYTSKKESCVGL
modifications: Butyrylcholinesterase variant
- cocaine hydrolysis activity compared to butyrylcholinesterase (in words): enhanced cocaine hydrolase activity
- increase in cocaine hydrolysis activity relative to butyrylcholinesterase: seven
- increase in cocaine hydrolysis activity relative to butyrylcholinesterase (listed as SEQ ID NO: 8): eight
- Relative Activity of butyrylcholinesterase variants (WT = 1) with enhanced cocaine hydrolase activity: 8

B7: A328W/S287G/F227A/A199S (protein)
chain: EDDIIIATKNGKVRGMNLTVFGGTVTAFLGIPYAQPPLGRLRFKKPQSLTKWSDIWNATKYANSCCQNIDQSFPGFHGSEMWNPNTDLSEDCLYLNVWIPAPKPKNATVLIWIYGGGFQTGTSSLHVYDGKFLARVERVIVVSMNYRVGALGFLALPGNPEAPGNMGLFDQQLALQWVQKNIAAFGGNPKSVTLFGESSGAASVSLHLLSPGSHSLFTRAILQSGSANAPWAVTSLYEARNRTLNLAKLTGCSRENETEIIKCLRNKDPQEILLNEAFVVPYGTPLGVNFGPTVDGDFLTDMPDILLELGQFKKTQILVGVNKDEGTWFLVYGAPGFSKDNNSIITRKEFQEGLKIFFPGVSEFGKESILFHYTDWVDDQRPENYREALGDVVGDYNFICPALEFTKKFSEWGNNAFFYYFEHRSSKLPWPEWMGVMHGYEIEFVFGLPLERRDNYTKAEEILSRSIVKRWANFAKYGNPNETQNNSTSWPVFKSTEQKYLTLNTESTRIMTKLRAQQCRFWTSFFPKVLEMTGNIDEAEWEWKAGFHRWNNYMMDWKNQFNDYTSKKESCVGL
modifications: Butyrylcholinesterase variant
- cocaine hydrolysis activity compared to butyrylcholinesterase (in words): enhanced cocaine hydrolase activity
- increase in cocaine hydrolysis activity relative to butyrylcholinesterase: one-hundred
- Relative Activity of butyrylcholinesterase variants (WT = 1) with enhanced cocaine hydrolase activity: 100
